Assay: label from the status in PepcDB records

Sequence: IRYAIERQRVEEALRHSEERFRVALKNSPIFVFNQDRDLRYTWIYNPIAGWTVEEMLGKQDSEIMSEQDAQCLTAIKYHVLTTGIGTRQVVSIGTPLGTKYYDLTVEPLRNESQDIVGITCACIDISERKLAEAKIREQ
- protein production: not failed

Sequence: MALYWNLRLSVKNWRSIQNNEKLIFQVLWPLKLLVALKFISTLEERLIIPESDKPHTPPEGRLPDATKGFDLLRDVFAKRMGLSDKDIVALSGSHTPISPSQS
- protein production: failed

Sequence: MKVAILGAGCYRTHAASGITNFSRASQVAKEAGIPEIAMTHSTITMGAELLHLIPEITEVVVSDPCFAEEPGMVVLDQFDYKAVMEAHLAGDAEKVMPEIREAVKAKAKETPKPPKGCIHFVHPETVGLKVTASDVEAVKDADIVITWLPKGGSQPAIIEKFASEIKKGAIVTHACTIPTPKFAKIFKDLGRDDLNIIAYHPGAVPEMKGQAFLSEGLADAEKVEEFYCMAKTARGEAFKMPANLISPVCDMGSAVTAPVYAAILAYRDAVTQILGAPADFAQMMADEAISQILDLMRNEGIKNMEDKLNPKALTGTADSMCFGPLADILPASLKVLEKHANENKCECGCSIKP
- protein production: failed

Sequence: MANKKNKVKFNICNVHYAPITVADEGKVSFGTPVAMPGAVSISMDPTGEPESFYADGIEYYVINNNQGYDGDLELAMIPETFRTDILKEEADSNNVLVENANSETGSFALLFEFDGDIRKIRHVLYNCSASRPTIESKTNEEDKEVQTETLTIKARPMADGYVKAKTGDSTTDTVYNNWYKSVYLPNSLEHHHHHH
- protein production: failed

Sequence: MVMSIEASCHCGETVFEVTEAPSSVTRCTCSLCAKRGSLWAYYKPAQFRLLSPPENVTTYLWGSRTVKHHFCASCGCGTYSESPDWSTGKPDFDNPKVAVNARLFDDFDLDAVPVNMIDGKNLWLEHHHHHH
- protein production: not failed

Sequence: MALDLNDVALFVQVVRSGSFAQAARHLGMPSNTVSRKVQQLEIQLGTRLLHRSTRKLVLTQAGEDFHERCVGAVDGLMDAAEQLVSGREEPGGRLRIAAMADFFDFFSMEWVADFLAEYPRVQLEFVLSDERADLIADRLDIAFRGGPLQDSGYVGRQLIEEGHDTMVASPAYIAAHGMPDSLQSLHGHYCVSTAHPGGSTVWRLLGPDAKMHEVQMASRFNANTAQALRKATLAGLGIALLPATLIRSDLRDGRLVPVLTQYQRTSHGLHVLYPSRQHLPPAVSAFIALVMEKLRDKAFAAQ
- protein production: failed

Sequence: MPFPSLPSPLARALTERNYAEPTPVQQAVLDAVPERDLLVSAQTGSGKTVAFGLAIAGTLLGEDETLPPPGAPLALVIAPTRELALQVQRELTWLYAQTGARIVPCVGGMDPRREARALEAGVHIVVGTPGRLRDHMERGRLVTEGLRAVILDEADEMLDMGFREDLEFILASTPKDRRTLLFSATLPKAIVALAESYQRDALRLAVAGETRGHADIVYRAVRVMPREVEHAVVNILRYVDAPVAIVFCNTRDGVRHLQASLTERGFSAVALSGELGQGERNAALQALRDGRARVCVATDVAARGIDLPGLDLVIHADLPHDAEVMQHRSGRTGRAGRKGTSVVLVPPAKRRRAEQMFAIAKVSPDWSGPPNADEIRILDRERMMSDPLLAEPETEEDREWEREWAEALMERCPPERLAAAFARLYRSRIPVPEEVSDPAYETSRRPDSRSGVPVGASRVGDDEPAAWFRLNLGRRDRAEPRRLLPMLTRRGQIGRGDIGSIRIFDNETTFEVRASAADDFAASFARRGPADVRVERMQGDGPAAAKAPKSPRAQRHRREATKTGRGG
- protein production: failed

Sequence: MKPRISVIIPTYNREELLRRAIESVLDQTFDDFEILVIDGAKSESTRELVRSFGDGRIRYIPQKGKGIANARNLGVSKARGEFIAFLDDDDRWRRDKLELQLELFKVLPQSYGVVYTAFTYYYLEKDKVLGIKHPRASGDVYKHLLKDNITGTSTIMVKRECFKKVGLFREDFVTCEDWDMWLRMAKVCYFGAIDEPLVDYSIHSGQFSFAKYLEGRYKMIEKHLDIKRNPRVLSYHLLQIGVLKLFSGDKRGVEDLLKAFRLNPTIRGNIWDILSSFVDVRTRIYILKFLGRLLEHHHHHH
- protein production: not failed

Sequence: MTNSNNRQSEYPVDPLFLDRWSPRAFDGSPMPKEHLLTILDAAHWAPSASNHQPWRFVYAHKDSEDWPLFVELLMEGNQKWAKNASVLLFVISRDHTISHEGEKKPSATHSFDAGAAWFSLAMQAHLLGYHAHGMGGIFKDRIVEKLDIPDGFKVEAGVAIGTLTDKSILPDDLAEREVPSKRVPLADVAFEGRFTGKAD
- protein production: not failed

Sequence: MKLVCISDTHSLHRRIPEIPDGDVLIHAGDSLGQGSLENIEDLNDWLGTLPHRHKIVIAGNHDWAFQEMPGEARTALSNAVYLEDSGVEIEGNRFWGSPWTPTFMDWAFMLERGEPLYQKWQLVPDNTDVLITHGPPKGIGDEANLGFKCQNVGCVDLLARIHQLSLKAHIFGHIHEGYGEYLRGKTRLINASTCTARYEPRNAPIVVDVLEHHHHHH
- protein production: failed

Sequence: MELNNTIATPLYKQLEKKLQQEIDSGKRPAGSRLPTENELSKAYNVSRVTVRKALAELSESGYLERKSGKGTFVAEKKLERGITNGVLGFSEMCKMMNAIPGAKIIKIALEEPSEKDIQKMSLNKDEKVLVLERVRYANGKPVLLELNKFPESFSFLFEENLTDASLYDILEQHNIILDHSRKTLDIVFADTKEAKTLGISRGYPLLRINSIIHNADNTITNLCQQLCIGDKFTFII
- protein production: failed

Sequence: MKTGKELKPGTVLRIDNDPWLVQKAEFTKSGRNSAIMKTKLKNLLTGYKTETVYGADDKLDDVILDRKEATLSFINGDEYTFMDTTDYTMYELNAEDIEAVLPYIEEGMEDVCEAVFFEGRLVSVELPTTISRKVVYTENAARGDTSGKVMKPAKLANGTEISVADFIQIDEWIDIDTRDNSFKGRSKKLEHHHHHH
- protein production: not failed

Sequence: SLQTSDVVIHRKENEGFGFVIISSLNRPESGSTITVPHKIGRIIDGSPADRCAKLKVGDRILAVNGQSIINMPHADIVKLIKDAGLSVTLRIIPQEELNSP
- protein production: not failed

Sequence: MKFKTIIKASYSIIFLSFQKVLHWEHIKFTAFKNLLSVSTKILIDKSSSVKFAGKICTESNVELKALNGGKLFIAENVFINSNSIVVALDNIHIGSNTLIGPGVLIFDHDHDFEKDKNSGTKNGRHFVTKPIRIESDVWIGGNSVILKGVTIGKGAVIAAGSIVLKDVEPYCLYAGNPAKKIRSY
- protein production: failed

Sequence: ELTIPKGAVSEIVTLSETFNQMAALLAEREQAILDSRGNRFARLIDGMSDKSFYCSLDPDGQLAQVSEGVTKVLGIPPELLKRKYQRLFSANPLNEKNWEYTDLALKGQNVPPHQIELVDAKGQARRLDVFMQPLVSDT
- protein production: failed

Sequence: MNFDRTFLTFLGVIMLVHLHIFFAFLSLALLVIRGAMQLNGKNWRSIKLLKILPHLSDTLLIVSGVVILYLFAFGIEWWLVAKFALLILYIVFAAKFFSKKVSQPKSIFFWLACVSFIGAMLIAYLK
- protein production: failed

Sequence: EGRLVCTVRDMTDRRQKERALRHRSSAMEVASDGIAILDEAGTYQYVNQAHASIYGYDTPGALVGRSWTACYEEAEQQRLEAEAMAALEETGDWRGEARGVREDGSSFPQELTLTVLEDGSIVCVVRDITARKEDERELRSTKQYYEQILEKAVK
- protein production: failed

Sequence: MIYYLIGVALFIFMLEQLVPGWKLPKVSTWVARVIFLNIVQVSIALLAGITWNKWMMGHSLLHTSDALPPLLAGFAAYFVNTFVTYWWHRARHANDTLWRLFHQLHHAPQRIEVFTSFYKHPTEMVFNSLLGSFVAYVVMGISIEAGAYYIMFAALGEMFYHSNLRTPHVLGYLFQRPEMHRIHHQRDRHECNYSDFPIWDMLFGTYENPRRIDEPQGFAGDKEQQFVDMLLFRDVHSLPGKTQPAPVLVKPDVR
- protein production: failed

Sequence: MLLTLPAPLRRALWAQVRRELPRECVGALGGWVRGEQVQAHALYPLPNVAADPEREYLADPGDLLRVVRAMQREGLDLVALYHSHPHGPAAPSASDRRLAAYPVPYLIADPAAEVLRAYLLPGGEEVEVRSADESNLEHHHHHH
- protein production: failed

Sequence: MSHCSCHDKPQHSLLPAAYRILSITRHTPLEWNFRVAVDFPAHWGQFVEVSLPRVGEAPISVSDYGDGWIDLLIRNLGKVTSALFTLKEGDNVWLRGCYGNGYPVDTLRHKPLLVVAGGTGVAPVKGLMRYFVENPQEIGQLDMILGYKNRDCVLYKEEMATWRGKHNLVLTLDEGEADDRYQIGRVTDRLADMTLSDIDTMQAIVVGPPIMITFTVKMLLQKGLKPEQIWVDYERRMACSVGKCGHCRMGEVYVCTDGPIFNYAVAQRFAD
- protein production: failed

Sequence: MSQQQKQYDIHWLTGQFFDSSKESRYRDSIKARVRFESRLALPLVSVVVAMFGITDYNLLGLTREFYWLLTMRIAVVSSCLVLAFAIGRWGGYSRNAWLHSLPLWILATGIILIVPLRPESISTQITAVVVAIMAFYLLIPNLLTVAALASLYLTVGFLSAAAVYAGIPSENVLRVSLLLIMANIVGYCALLRIEFLQRKQFALLQDERDQNRDLLKEIKHRKSLEAQLRMVAERDALTGLDSRSHFMKRAEALLQRAQLEKTPFCLFMIDVDHFKRINDTWGHTRGDLILTKIAEVCEQSLRPTDVIGRFGGEEFVVGLPHTSPSEAQTIAERLKENVEALPLTAELSELCLSVTIGIAAAHGEEDDLDVLITRADNMLYEGKREGRNRVVMFGEGMDS
- protein production: failed

Sequence: MGMIGYFAEIDSEKINQLLESTEKPLMDNIHDTLSGLRRLDIDKRWDFLHFGLTGTSAFDPAKNDPLSRAVLGEHSLEDGIDGFLGLTWNQELAATIDRLESLDRNELRKQFSIKRLNEMEIYPGVTFSEELEGQLFASIMLDMEKLISAYRRMLRQGNHALTVIVG
- protein production: not failed

Sequence: MANITFSSPVMAKDVTVYAVAGDRGTILAVAKSHSIPIPFDCQDGECGSCLVQVEHFNPKAKAAVALTEKEKEVLRQLGKITKEEIVDAEVNDIPPRYRLACQCFVRNEDILVKFEGDKTKPQRLAVTPAAAHYKGGMEINTPQEFFSYAAKVEEDAALHYDSLAKAMADAGNAPVAKLFAQLAEFSRLHLAEVKSRAGSIDLSKSVPPDYAWPDHATPERAAVWASDTTLTRLGALKAALQGERRGYEFYRAVEATTKSSEVAAAAKEFVNEEAEHVRILEAWITQEEWSLKHAAKAAENA
- protein production: failed

Sequence: MNDIILKSLSTLITEQRNPNSVDIDRQSTLEIVRLMNEEDKLVPLAIESCLPQISLAVEQIVQAFQQGGRLIYIGAGTSGRLGVLDASECPPTFGVSTEMVKGIIAGGECAIRHPVEGAEDNTKAVLNDLQSIHFSKNDVLVGIAASGRTPYVIAGLQYAKSLGALTISIASNPKSEMAEIADIAIETIVGPEILTGSSRLKSGTAQKMVLNMLTTASMILLGKCYENLMVDVQASNEKLKARAVRIVMQATDCNKTLAEQTLLEADQNAKLAIMMILSTLSKSEAKVLLERHQGKLRNALSK
- protein production: not failed

Sequence: PWQPPADLSGLSIEEVSKSLRFIGLSEDVISFFVTEKIDGNLLVQLTEEILSEDFKLSKLQVKKIMQFING
- protein production: not failed

Sequence: SQPQQGKQYEVLPVSLQEYNLAPLTEAFALTCGHCRSMEEFVPQIESLTEQKVEKMHVTFNESAQISAIIFYTAVMQLDATPDKAFMADLFAAVQMGADATAEERQQAVEKAFESRNLISPYHLDEAQQEKLFEYITKAESITTRGQINSVPAFIVNGKYQVITGGHDSVEAMAETINYLLKQ
- protein production: not failed

Sequence: MDREAFVQTLTACRLCPRLVAWREEVVGRKRAFRGEPYWARPVPGFGDPEARILLFGLAPGAHGSNRTGRPFTGDASGAFLYPLLHEAGLSSKPESLPGDDLRLYGVYLTAAVRCAPPKNKPTPEELRACARWTEVELGLLPEVRVYVALGRIALEALLAHFGLRKSAHPFRHGAHYPLPGGRHLLASYHVSRQNTQTGRLTREMFLEVLMEAKRLAGL
- protein production: not failed

From a protein production outcome set (Wang et al. 2014)
